Experimental data taken from patent publication US20250154265A1.

Experiments:
Assay in all cases: cell-based or functional assay
[1] = biological target: WT EGFR on HEKn cells (human) (UniProt P00533)
[2] = biological target: human cMET on cells (Hs746T, H596, EBC-1) (human) (UniProt P08581)
[3] = biological target: EGFR on H2073 cells (human) (UniProt P00533)
[4] = biological target: EGFR L858R/T790M on H1975 cells (human) (UniProt P00533)

Sequence of human cMET on cells (Hs746T, H596, EBC-1) (human) (P08581 25-1390 limits assumed): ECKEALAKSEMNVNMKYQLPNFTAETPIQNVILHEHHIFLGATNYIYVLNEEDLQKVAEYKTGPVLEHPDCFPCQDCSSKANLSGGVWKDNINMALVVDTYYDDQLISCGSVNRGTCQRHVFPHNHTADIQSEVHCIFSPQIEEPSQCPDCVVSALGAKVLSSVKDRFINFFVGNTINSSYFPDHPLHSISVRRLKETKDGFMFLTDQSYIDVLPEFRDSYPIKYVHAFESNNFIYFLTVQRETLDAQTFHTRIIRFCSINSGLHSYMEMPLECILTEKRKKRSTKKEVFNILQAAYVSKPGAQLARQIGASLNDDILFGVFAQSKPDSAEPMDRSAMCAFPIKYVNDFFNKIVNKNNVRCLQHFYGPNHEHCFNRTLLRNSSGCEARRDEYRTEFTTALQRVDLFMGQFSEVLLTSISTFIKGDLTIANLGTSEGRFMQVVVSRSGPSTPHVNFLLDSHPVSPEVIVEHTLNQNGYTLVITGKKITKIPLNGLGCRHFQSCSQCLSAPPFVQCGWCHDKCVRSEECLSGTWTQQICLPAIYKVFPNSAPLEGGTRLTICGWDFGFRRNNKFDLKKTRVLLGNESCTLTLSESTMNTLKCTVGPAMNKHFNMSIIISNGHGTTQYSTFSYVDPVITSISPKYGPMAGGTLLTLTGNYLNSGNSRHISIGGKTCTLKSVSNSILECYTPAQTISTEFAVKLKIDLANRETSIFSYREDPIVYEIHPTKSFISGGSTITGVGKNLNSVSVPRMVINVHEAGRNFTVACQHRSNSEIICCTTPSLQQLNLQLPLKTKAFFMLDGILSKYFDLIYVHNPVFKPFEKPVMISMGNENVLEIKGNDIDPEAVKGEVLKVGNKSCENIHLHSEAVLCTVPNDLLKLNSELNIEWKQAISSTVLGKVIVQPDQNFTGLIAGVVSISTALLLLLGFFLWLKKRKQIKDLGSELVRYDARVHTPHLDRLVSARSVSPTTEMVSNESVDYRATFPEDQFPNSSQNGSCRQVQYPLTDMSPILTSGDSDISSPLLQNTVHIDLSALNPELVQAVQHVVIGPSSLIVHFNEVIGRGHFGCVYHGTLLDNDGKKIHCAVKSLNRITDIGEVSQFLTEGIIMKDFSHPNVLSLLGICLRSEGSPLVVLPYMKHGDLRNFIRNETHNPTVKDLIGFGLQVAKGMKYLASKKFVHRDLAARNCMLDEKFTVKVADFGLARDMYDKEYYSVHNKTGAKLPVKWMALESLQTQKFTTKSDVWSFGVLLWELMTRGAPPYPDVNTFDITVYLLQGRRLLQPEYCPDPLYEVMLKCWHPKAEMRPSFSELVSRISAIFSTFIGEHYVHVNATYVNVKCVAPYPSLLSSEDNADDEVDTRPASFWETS

IC50, anti-proliferation on HEKn cells [1] | Imax(%), anti-proliferation on HEKn cells [1] | Imax (%), anti-proliferation on EBC-1 [2] | Imax (%), anti-proliferation on Hs746t [2] | IC50, anti-proliferation on H2073 [3] | Imax (%), anti-proliferation on H2073 [3] | IC50, anti-proliferation on H1975 [4] | Imax (%), anti-proliferation on H1975 [4] | Substance
0.24 nM | 46.2% | – | – | – | – | – | – | LY3164530 (bispecific antibody)
5.7 nM | 33.5% | 0% | 0% | 3.46 nM | 83% | 0.23 nM | 58.4% | JNJ-372 (bispecific antibody)
